Reference: patent US11135223B2, “Compositions and methods for inhibiting Dkk-1” (YALE UNIVERSITY, priority 2016, dated 2021)

System: CD4 T cells
Assay: CD4 T cell activation and differentiation in vitro with Dkk-1 or Wnt3a
Format: cell-based, mice
Source text: FIG. 5, comprising FIG. 5A through FIG. 5E, depicts results of experiments showing Dkk-1 induces TH2 cell polarization. FIG. 5A depicts lungs harvested for immunohistochemistry of CD3 (dark brown), CD41 (blue) and isotype control antibodies of lungs from Dkk-1^d/d mice and their wildtype littermate controls challenged with HDM extract allergen. Orange arrowheads in the images indicate co-localized CD3 T cells with CD41^+ platelets. FIG. 5B depicts ELISA analysis of Dkk-1 from plasma samples from Dkk-1^d/d mice (n=5) collected 24 hours after challenge with 50 μg HDM. FIG. 5C depicts ELISA analysis of splenic CD4 T cells from 6-8 week-old C57BL/6 mice were activated with anti-CD3 and anti-CD28 antibodies (Act) with or without Dkk-1 (30 ng/ml unless indicated) for 4 days. FIG. 5D depicts flow cytometry analysis of splenic CD4 T cells from 6-8 week-old C57BL/6 mice were activated with anti-CD3 and anti-CD28 antibodies (Act) with or without Dkk-1 (30 ng/ml unless indicated) for 4 days. FIG. 5E depicts ELISA analysis of naïve CD4 T cells stimulated anti-CD3 and anti-CD28 antibodies for 96 hr with or without Dkk-1.
FIG. 6, comprising FIG. 6A through FIG. 6E, depicts results of experiments showing Dkk-1 induces TH2 cytokines in various T cell differentiation conditions. FIG. 6A depicts flow cytometry and ELISA analysis of naïve CD4 T cells were stimulated under TH1 polarization conditions for 96 hours with or without Dkk-1. FIG. 6B depicts flow cytometry and ELISA analysis of naïve CD4 T cells were stimulated under TH2 polarization conditions for 96 hours with or without Dkk-1. FIG. 6C depicts flow cytometry analysis of Foxp3, IL-17A, and IL-10 expression in splenic naïve CD4 T cells isolated and differentiated into iTreg for 5 days with 100 U/ml IL-2 and 1.5 ng/ml TGF-β with or without 30 ng/ml and 3 ng/ml of Dkk-1 treated during the culture. FIG. 6D depicts Gata-3 expression levels of splenic naïve CD4 T cells from 8 week-old C57BL/6 mice treated with Dkk-1 with varying doses of Dkk-1 (50, 30, 7.5 ng/ml) or Wnt3a (20% v/v) for 96 hours in the presence of anti-CD3 and anti-CD28 antibody stimulation. FIG. 6E depicts qPCR results of Tcf7 and Lef1 mRNA harvested from splenic naïve CD4 T cells from 8 week-old C57BL/6 mice stimulated with or without Dkk-1 (30 ng/ml) for 96 hours. All results were statistically non-significant. All experiments are a representative of two to three independent experiments. Student's t-test or one way-ANOVA analysis with Bonferonni's post-hoc test were performed. Small horizontal lines and error bars indicate the mean (±s.e.m.). ***, p<0.0001, **, p<0.005, *, p<0.05.
FIG. 8, comprising FIG. 8A through FIG. 8G, depicts results of experiments showing Dkk-1 induces IL-10 in CD4 T cells via SGK-1 and p38 MAPK. FIG. 8A depicts ELISA analysis of naïve CD4 T cell differentiated into TH2 cells with or without Dkk-1 (30 ng/ml), SGK-1 inhibitor (2 μM) or p38 inhibitor (10 μM) for 96 hours. FIG. 8B depicts flow cytometry analysis of human naïve CD4 T cells (CD4^+CD25^−CD45RA^+) transduced with SGK-1 shRNA and selected with puromycin (0.5 μg/ml) for 48 hours. The selected cells were stimulated with anti-CD3 mAb (OKT3) and anti-CD28 mAb with or without Dkk-1 for 96 hr. For the last 5 hr of culture, stimulation cocktail (PMA/Ionomycin/Brefeldin A/Monensin) was added. FIG. 8C depicts intracellular staining with antibodies recognizing phospho-S6 kinase of splenic CD4^+CD25^− cells from 6 week-old C57BL/6 mice were isolated and activated with anti-CD3 and anti-CD28 mAb (2 μg/ml) with or without Dkk-1 (25 ng/ml) for indicated time points. FIG. 8D depicts intracellular staining with antibodies recognizing phospho-4E-BP1 of splenic CD4^+CD25^− cells from 6 week-old C57BL/6 mice were isolated and activated with anti-CD3 and anti-CD28 mAb (2 μg/ml) with or without Dkk-1 (25 ng/ml) for indicated time points. […]

B1: Dkk-1: Wnt antagonist Dickkopf-1 protein, expressed in CHO cells, added to cells or injected into mice (protein, UniProt O94907 32-266, looked up)
Dickkopf-related protein 1: TLNSVLNSNAIKNLPPPLGGAAGHPGSAVSAAPGILYPGGNKYQTIDNYQPYPCAEDEECGTDEYCASPTRGGDAGVQICLACRKRRKRCMRHAMCCPGNYCKNGICVSSDQNHFRGEIEETITESFGNDHSTLDGYSRRTTLSSKMYHTKGQEGSVCLRSSDCASGLCCARHFWSKICKPVLKEGQVCTKHRRKGSHGLEIFQRCYCGEGLSCRIQKDHHQASNSSRLHTCQRH
TH1 and TH17-associated cytokines (IFN-γ, IL-17A and IL-17F) (CD4 T cell activation in vitro): not induced | IFN-γ expression (TH1 polarization conditions, 96 hours): suppressed | IL-4 expression (TH2 cell differentiation, dose-dependent): enhanced | TGF-β-mediated Foxp3 expression (iTreg differentiation with IL-2 and TGF-β, 5 days): inhibiting | Gata-3+ and c-Maf+ CD4 T cell population (in vitro, Dkk-1 30 ng/ml): increased | amount of Dkk-1 that could induce Gata-3 expression (naïve CD4 T cells, 96 hours, similar to Wnt3a): up to 30 ng/ml | TCF-1 or Lef expression (naïve CD4 T cells, Dkk-1 30 ng/ml, 96 hours, qPCR): did not induce | levels of Dkk-1 that inhibited Gata-3 expression (naïve CD4 T cells, non-physiologic high levels): > 50 ng/mL | phosphorylation of S6 kinase or 4E-BP-1 (splenic CD4+CD25- cells, Dkk-1 25 ng/ml): not altered | IL-4, IL-10 and IL-13 (total CD4 T cell activation in vitro, Dkk-1 30 ng/ml, 4 days): induced
